Measurements reported in article doi:10.1101/2021.11.08.467681 (bioRxiv, 2021).

Molecular target: the molecule itself
Experiment: FRET or BRET

Row | Protein | binding result
1 | FtsA WT (natural protein) MIKATDRKLVVGLEIGTAKVAALVGEVLPDGMVNIIGVGSCPSRGMDKGGVNDLESVVKCVQRAIDQAELMADCQISSVYLALSGKHISCQNEIGMVPISEEEVTQEDVENVVHTAKSVRVRDEHRVLHVIPQEYAIDYQEGIKNPVGLSGVRMQAKVHLITCHNDMAKNIVKAVERCGLKVDQLIFAGLASSYSVLTEDERELGVCVVDIGGGTMDIAVYTGGALRHTKVIPYAGNVVTSDIAYAFGTPPSDAEAIKVRHGCALGSIVGKDESVEVPSVGGRPPRSLQRQTLAEVIEPRYTELLNLVNEEILQLQEKLRQQGVKHHLAAGIVLTGGAAQIEGLAACAQRVFHTQVRIGAPLNITGLTDYAQEPYYSTAVGLLHYGKESHLNGEAEVEKRVTASVGSWIKRLNSWLRKEF | binds
2 | FtsA WT(1-405)-6xHis (domain or fragment) MIKATDRKLVVGLEIGTAKVAALVGEVLPDGMVNIIGVGSCPSRGMDKGGVNDLESVVKCVQRAIDQAELMADCQISSVYLALSGKHISCQNEIGMVPISEEEVTQEDVENVVHTAKSVRVRDEHRVLHVIPQEYAIDYQEGIKNPVGLSGVRMQAKVHLITCHNDMAKNIVKAVERCGLKVDQLIFAGLASSYSVLTEDERELGVCVVDIGGGTMDIAVYTGGALRHTKVIPYAGNVVTSDIAYAFGTPPSDAEAIKVRHGCALGSIVGKDESVEVPSVGGRPPRSLQRQTLAEVIEPRYTELLNLVNEEILQLQEKLRQQGVKHHLAAGIVLTGGAAQIEGLAACAQRVFHTQVRIGAPLNITGLTDYAQEPYYSTAVGLLHYGKESHLNGEAEVEKRVTASV | binds
3 | FtsA R286W (1-405)-6xHis (domain or fragment) MIKATDRKLVVGLEIGTAKVAALVGEVLPDGMVNIIGVGSCPSRGMDKGGVNDLESVVKCVQRAIDQAELMADCQISSVYLALSGKHISCQNEIGMVPISEEEVTQEDVENVVHTAKSVRVRDEHRVLHVIPQEYAIDYQEGIKNPVGLSGVRMQAKVHLITCHNDMAKNIVKAVERCGLKVDQLIFAGLASSYSVLTEDERELGVCVVDIGGGTMDIAVYTGGALRHTKVIPYAGNVVTSDIAYAFGTPPSDAEAIKVRHGCALGSIVGKDESVEVPSVGGRPPWSLQRQTLAEVIEPRYTELLNLVNEEILQLQEKLRQQGVKHHLAAGIVLTGGAAQIEGLAACAQRVFHTQVRIGAPLNITGLTDYAQEPYYSTAVGLLHYGKESHLNGEAEVEKRVTASV | binds
